Source: patent US7344852 (Takeda / Millennium, dated 2008)

Molecular target: the molecule itself
Assay: X-ray crystal structure of apo DPPIV (self-association, homodimer)
Experimental: The structure of DPPIV was solved by a combination of heavy-atom derivatives and Seleno-Methionine (Se-Met) phasing in conjunction with non-crystallographic averaging. Heavy atom derivatives were obtained by soaking native DPPIV crystals in heavy atom solutions made using the crystallization solution. The concentration of heavy atom derivative and time of soaking varied between 0.5 mM to 10 mM and 1 to 15 days, respectively. An extensive array of heavy atom derivatives were individually soaked into DPPIV crystals and analyzed. Two heavy atom derivatives were used to determine the phases: di-m-iodobis (ethylene-diamine)-di-platinum (II) nitrate (PIP) and ethyl mercuric thiosalicylic acid sodium salt (EMTS). Data from crystals of apo DPPIV, Se-Met-DPPIV, PIP-DPPIV and EMTS-DPPIV were collected from cryocooled crystals (100K) at the Stanford Synchrotron Radiation Laboratory (SSRL) beam lines 9-1, 9-2 and 11-1 and the Advanced Light Source (ALS) beam lines 5.0.2 and 5.0.3 both using an ADSC Quantum CCD detector. […] Data were collected and integrated to 2.3 Å with MOSFLM (or HKL2000) and scaled with SCALA (or Scalepack) (CCP4 Study Weekend, Eds. Sawyer, L., Isaacs, N. & Bailey, S. 56-62, SERC Daresbury Laboratory, England, 1993).
Crystals were obtained after an extensive and broad screen of conditions, followed by optimization. […]

B1: recombinant human dipeptidyl peptidase IV (DPPIV), residues 39-766 of SEQ ID NO:1 with part of a gp67 signal sequence and a 6x-histidine tag (SEQ ID NO:3) (enzyme)
chain: ADPGGSHHHHHHSRKTYTLTDYLKNTYRLKLYSLRWISDHEYLYKQENNILVFNAEYGNSSVFLENSTFDEFGHSINDYSISPDGQFILLEYNYVKQWRHSYTASYDIYDLNKRQLITEERIPNNTQWVTWSPVGHKLAYVWNNDIYVKIEPNLPSYRITWTGKEDIIYNGITDWVYEEEVFSAYSALWWSPNGTFLAYAQFNDTEVPLIEYSFYSDESLQYPKTVRVPYPKAGAVNPTVKFFVVNTDSLSSVTNATSIQITAPASMLIGDHYLCDVTWATQERISLQWLRRIQNYSVMDICDYDESSGRWNCLVARQHIEMSTTGWVGRFRPSEPHFTLDGNSFYKIISNEEGYRHICYFQIDKKDCTFITKGTWEVIGIEALTSDYLYYISNEYKGMPGGRNLYKIQLSDYTKVTCLSCELNPERCQYYSVSFSKEAKYYQLRCSGPGLPLYTLHSSVNDKGLRVLEDNSALDKMLQNVQMPSKKLDFIILNETKFWYQMILPPHFDKSKKYPLLLDVYAGPCSQKADTVFRLNWATYLASTENIIVASFDGRGSGYQGDKIMHAINRRLGTFEVEDQIEAARQFSKMGFVDNKRIAIWGWSYGGYVTSMVLGSGSGVFKCGIAVAPVSRWEYYDSVYTERYMGLPTPEDNLDHYRNSTVMSRAENFKQVEYLLIHGTADDNVHFQQSAQISKALVDVGVDFQAMWYTDEDHGIASSTAHQHIYTHMSHFIKQCFSLP
modifications: glycosylated; four or five residues per chain carry covalently linked sugar molecules (NAG), positions not given
notes: Secreted from baculovirus-infected insect cells; crystallised as apo protein; The asymmetric unit holds four copies that form two dimers (A with B, C with D); also called DPP4; CD26
  binding result: binds
